# Earlier results as cited in publication PMC4353500.
# pKd: −log10 of the molar value.
# Key:
# Cavβ4b = Cavβ4b (UniProt D4A055)
# Cavβ2a = Cavβ2a (UniProt Q08289)
# Chain of Cavβ2a (Q08289 whole entry): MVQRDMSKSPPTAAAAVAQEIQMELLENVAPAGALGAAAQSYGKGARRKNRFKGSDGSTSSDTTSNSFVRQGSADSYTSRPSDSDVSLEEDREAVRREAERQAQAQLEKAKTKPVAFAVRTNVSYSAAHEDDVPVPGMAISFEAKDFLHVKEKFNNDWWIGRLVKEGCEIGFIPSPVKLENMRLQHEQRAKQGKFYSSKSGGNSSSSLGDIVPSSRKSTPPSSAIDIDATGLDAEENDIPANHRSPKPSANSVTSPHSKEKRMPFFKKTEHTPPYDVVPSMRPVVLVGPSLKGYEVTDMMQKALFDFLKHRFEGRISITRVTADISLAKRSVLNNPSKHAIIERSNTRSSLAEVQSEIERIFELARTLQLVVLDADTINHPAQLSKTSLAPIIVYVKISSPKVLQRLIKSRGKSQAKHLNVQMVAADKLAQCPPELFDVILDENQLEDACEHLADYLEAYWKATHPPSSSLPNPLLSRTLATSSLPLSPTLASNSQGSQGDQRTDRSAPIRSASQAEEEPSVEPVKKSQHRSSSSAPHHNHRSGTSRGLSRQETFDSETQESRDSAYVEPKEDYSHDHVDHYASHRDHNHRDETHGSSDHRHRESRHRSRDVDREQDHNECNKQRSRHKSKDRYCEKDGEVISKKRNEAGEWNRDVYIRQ
substance,measurement,setting,value
RIM1 CTD (from UniProt Q99NE5),pKd,Cavβ4b,7.46
same,pKd,Cavβ2a,7.46
